IntAct's records for PubMed 20953186

B1: E3 ubiquitin ligase TRAF3IP2 (Homo sapiens), O43734-2 (parent)
chain: MNRSIPVEVDESEPYPSQLLKPIPEYSPEEESEPPAPNIRNMAPNSLSAPTMLHNSSGDFSQAHSTLKLANHQRPVSRQVTCLRTQVLEDSEDSFCRRHPGLGKAFPSGCSAVSEPASESVVGALPAEHQFSFMEKRNQWLVSQLSAASPDTGHDSDKSDQSLPNASADSLGGSQEMVQRPQPHRNRAGLDLPTIDTGYDSQPQDVLGIRQLERPLPLTSVCYPQDLPRPLRSREFPQFEPQRYPACAQMLPPNLSPHAPWNYHYHCPGSPDHQVPYGHDYPRAAYQQVIQPALPGQPLPGASVRGLHPVQKVILNYPSPWDHEERPAQRDCSFPGLPRHQDQPHHQPPNRAGAPGESLECPAELRPQVPQPPSPAAVPRPPSNPPARGTLKTSNLPEELRKVFITYSMDTAMEVVKFVNFLLVNGFQTAIDIFEDRIRGIDIIKWMERYLRDKTVMIIVAISPKYKQDVEGAESQLDEDEHGLHTKYIHRMMQIEFIKQGSMNFRFIPVLFPNAKKEHVPTWLQNTHVYSWPKNKKNILLRLLREEEYVAPPRGPLPTLQVVPL
partner: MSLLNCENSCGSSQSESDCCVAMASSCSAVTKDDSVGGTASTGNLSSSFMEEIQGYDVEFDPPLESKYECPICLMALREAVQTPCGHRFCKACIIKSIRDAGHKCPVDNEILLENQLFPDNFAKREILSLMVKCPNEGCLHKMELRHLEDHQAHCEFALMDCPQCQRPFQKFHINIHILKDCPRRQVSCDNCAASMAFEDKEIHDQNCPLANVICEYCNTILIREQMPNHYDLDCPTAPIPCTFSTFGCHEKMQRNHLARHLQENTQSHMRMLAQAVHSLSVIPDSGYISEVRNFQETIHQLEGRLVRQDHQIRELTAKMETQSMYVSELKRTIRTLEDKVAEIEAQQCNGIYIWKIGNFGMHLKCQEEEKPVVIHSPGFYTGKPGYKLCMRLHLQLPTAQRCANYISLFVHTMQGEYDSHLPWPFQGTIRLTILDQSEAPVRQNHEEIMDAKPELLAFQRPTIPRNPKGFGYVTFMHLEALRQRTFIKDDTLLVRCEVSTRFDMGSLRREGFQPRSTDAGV

Variants of: B1
Conditions: with traf6_human TRAF6, Q9Y4K3

| effect of a mutation on the interaction | Variant |
| --- | --- |
| disrupting interaction | D10N |
